Test results published in patent publication US20060257880A1, “Gastric and prostate cancer associated antigens” (THE NOTTINGHAM TRENT UNIVERSITY, priority 2003, published 2006).

Assays:
[1] = system: prostate cancer patients' sera; assay: Modified SEREX immunoscreening of T21 clone against prostate cancer patients' sera; format: binding, human; parameters: key to Sera reactivity: +: sera reactivity observed; −: no sera reactivity observed
Excerpt: (§1) The SEREX approach allows an unbiased search for an antibody response and the direct molecular definition of immunogenic tumour proteins based on their reactivity with allogeneic patient sera. In this approach, a prokaryotically expressed cDNA library constructed from normal human testes was immunoscreened with absorbed and diluted patients' sera for the detection of tumour antigens that have elicited a high-titer immunoglobulin (Ig) G humoral response. Such a humoral response implies T-cell recognition of the detected antigens by helper T cells. […] The SEREX approach can then be modified and used to determine the reactivity of identified antigens with panels of human sera including prostate cancer patient sera and normal donor sera.
(§2) The reactivity of promising positive clones against patient and normal donor serum was determined by immunoscreening the clones against and allogeneic panel of 10 prostate cancer patients' sera and 10 healthy donor patients' sera. The methodology used was the same as the SEREX methodology (described above) with the following modifications: The positive clone (T21) and a negative clone (blue phage) were plated out on a small LB agar plate at a ratio of 1:2 to give a titre of approximately 600 pfu/plate. The steps for detection of false positives, subcloning and retesting were not necessary. Following expression overnight, plaque expression and transferral of the plaques to nitrocellulose membranes, the nitrocellulose membranes were incubated with the individual serum and colour developed as described previously. The results would then be recorded simply as being positive (plaques visible) or negative (no plaques visible).
(§3) Immune recognition of identified gene products in prostate cancer patients. To assess the frequency of antibody responses against T21 in sera from normal individuals and prostate cancer patients, 10 prostate cancer patient sera and 10 normal adult sera were screened using a modified immunoscreening procedure.

[2] = system: normal individual sera; assay: Modified SEREX immunoscreening of T21 clone against normal individual sera; format: binding, human; parameters: key to Sera reactivity: +: sera reactivity observed; −: no sera reactivity observed
Excerpt: as §1, §2, §3

B1: T21: SEREX-identified cancer-testis antigen clone; cDNA encodes a putative 535 amino acid protein (SEQ. ID. 3) (protein, listed as Homo sapiens)
chain: MSEAQSKNEIIAQEFLIKEAECRNADIELEHHRSQAEQNEFLSRELIEKERDLERSRTVIAKFQNKLKELVEENKQLEEGMKEILQAIKEMQKDPDVKGGETSLIIPSLERLVNAIESKNAEGIFDASLHLKAQVDQLTGRNEELRQELRESRKEAINYSQQLAKANLKIDHLEKETSLLRQSEGSNVVFKGIDLPDGIAPSSASIINSQNEYLIHLLQELENKEKKLKNLEDSLEDYNRKFAVIRHQQSLLYKEYLSEKETWKTESKTIKEEKRKLEDQVQQDAIKVKEYNNLLNALQMDSDEMKKILAENSRKITVLQVNEKSLIRQYTTLVELERQLRKENEKQKNELLSMEAEVCEKIGCLQRFKEMAIFKIAALQKVVDNSVSLSELELANKQYNELTAKYRDILQKDNMLVQRTSNLEHLECENISLKEQVESINKELEITKEKLHTIEQAWEQETKLGNESSMDKAKKSITNSDIVSISKKITMLEMKELNERQRAEHCQKMYEHLRTSLKQMEERNFELETKFAEV
B1 was tested, and the “Antibody response against T21 in sera (in words)” value ([1]; 10 prostate cancer patient sera) was “reacted exclusively with allogeneic sera obtained from prostate cancer patients”, the “Sera reactivity, reactive sera / sera tested” value ([1]; panel of 10 prostate cancer patients sera) was 4/10 and the Sera reactivity ([1]; prostate cancer patient serum 27) was “+”. The Sera reactivity ([1]; prostate cancer patient serum 29) was “−”, the Sera reactivity ([1]; prostate cancer patient serum 32) was “−” and the Sera reactivity ([1]; prostate cancer patient serum 33) was “−”. The Sera reactivity ([1]; prostate cancer patient serum 34) was “+”, the Sera reactivity ([1]; prostate cancer patient serum 36) was “−” and the Sera reactivity ([1]; prostate cancer patient serum 37) was “−”. For the same molecule, the Sera reactivity ([1]; prostate cancer patient serum 38) was “+”, the Sera reactivity ([1]; prostate cancer patient serum 39) was “+” and the Sera reactivity ([1]; prostate cancer patient serum 48) was “−”. For the same molecule, the “Antibody response against T21 in sera (in words)” value ([2]; 10 normal adult sera) was “not with sera from healthy individuals”, the Sera reactivity ([2]; normal individual serum 1) was “−” and the Sera reactivity ([2]; normal individual serum 2) was “−”. For the same molecule, the Sera reactivity ([2]; normal individual serum 3) was “−”, the Sera reactivity ([2]; normal individual serum 5) was “−” and the Sera reactivity ([2]; normal individual serum 12) was “−”. For the same molecule, the Sera reactivity ([2]; normal individual serum 13) was “−”, the Sera reactivity ([2]; normal individual serum 14) was “−” and the Sera reactivity ([2]; normal individual serum 19) was “−”. The Sera reactivity ([2]; normal individual serum 20) was “−”, the Sera reactivity ([2]; normal individual serum 21) was “−” and the “Sera reactivity, reactive sera / sera tested” value ([2]; panel of 10 normal donor sera) was 0/10.
